# Reference: article PMC11229316, “Insights into the molecular mechanism of ParABS system in chromosome partition by HpParA and HpParB” (Nucleic Acids Research, 2024)
# Where a chain is given by its changes, count along the chain named. No end group written: not given here.
# B1: HpParBN10, N-terminal peptide of HpParB (residues 1-10) (peptide)
# peptide: MAKNKVLGRG
# modifications: not fully specified (N-terminus); also: labeled with 5-FAM-Ahx fluorophore, site not given here
# notes: residues 1-10 of Helicobacter pylori Spo0J/ParB (HP1138); The methods describe only the 5-FAM-Ahx-labelled peptide; also called HpSpo0JN10; source: synthetic peptide, bought: MDBio, inc
# B2: Cy5/Cy3-labeled nsDNA 24-bp (dsDNA)
# DNA 1: TCCTATGAATTGCTATGGCAAGCG
# DNA 2: CGCTTGCCATAGCAATTCATAGGA
# B3: nsDNA 24-bp (dsDNA)
# DNA 1: TCCTATGAATTGCTATGGCAAGCG
# DNA 2: CGCTTGCCATAGCAATTCATAGGA
# B4: Cy3-parS 24-bp (dsDNA)
# DNA 1: AGGGTGTTCCACGTGAAACAGGGA
# DNA 2: TCCCTGTTTCACGTGGAACACCCT
# Tests used:
# [1] = target: T1, HpParAD41A, ATP hydrolysis-deficient mutant of Helicobacter pylori ParA (Helicobacter pylori, UniProt O25759, D41A); assay: MST; 5-FAM-Ahx-labeled peptide (200 nM) mixed 1:1 with 16 serial dilutions of unlabeled HpParA or HpParAD41A (300 μM); 20 mM Tris-HCl pH 8.0, 5% glycerol, 200 mM NaCl, 50 mM imidazole, 5 mM MgCl2, 0.05% Tween20; 25°C; the results speak of ParA-DNA complexes; conditions: both partners purified
# T1 construct: also called HpSojD41A; source: recombinant, grown in Luria-Bertani medium, induced with IPTG, purified as HpParA (Ni-NTA, SEC)
# T1 sequence: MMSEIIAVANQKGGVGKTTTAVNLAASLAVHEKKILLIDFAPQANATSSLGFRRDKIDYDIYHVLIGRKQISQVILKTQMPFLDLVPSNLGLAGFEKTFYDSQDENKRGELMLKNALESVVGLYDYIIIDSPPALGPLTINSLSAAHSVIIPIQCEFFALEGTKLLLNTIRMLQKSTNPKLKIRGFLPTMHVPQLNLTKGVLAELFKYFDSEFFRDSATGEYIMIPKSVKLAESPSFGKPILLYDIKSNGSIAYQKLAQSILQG
# [2] = target: HpParAD41A;HpParB (HpSpo0J) (Helicobacter pylori;Helicobacter pylori, UniProt O25759;O25758 1-264;1-290, D41A|); assay: EMSA; no CTP; NAC3 with Cy3-parS (N3) also in complex; FP: 20 mM Tris-HCl pH 8.0, 175 mM NaCl, 5 mM MgCl2, 10% glycerol, 1 mM ATP or CTP, 5 nM DNA, room temperature; EMSA: 20 mM Tris-HCl pH 8.0, 50 mM NaCl, 11 mM imidazole, 5 mM MgCl2, 10% glycerol, +/- 2 mM CTP, 37 C, gel at 4 C; conditions: protein: recombinant;recombinant; tags: His (Ni-NTA purified); label: 5' Cy5 in EMSA; FP label Cy3 or Cy5 not specified per DNA; blunt
# HpParA (HpSoj) = target: T2, HpParA (HpSoj) (Helicobacter pylori, UniProt O25759 1-264); assay: fluorescence polarization; 1 mM ATP, 5 mM Mg2+; FP: 20 mM Tris-HCl pH 8.0, 175 mM NaCl, 5 mM MgCl2, 10% glycerol, 1 mM ATP or CTP, 5 nM DNA, room temperature; EMSA: 20 mM Tris-HCl pH 8.0, 50 mM NaCl, 11 mM imidazole, 5 mM MgCl2, 10% glycerol, +/- 2 mM CTP, 37 C, gel at 4 C; conditions: protein: recombinant; tags: His (Ni-NTA purified); label: 5' Cy5 in EMSA; FP label Cy3 or Cy5 not specified per DNA; blunt
# T2 sequence: T1 sequence with A41D
# HpParAD41A = HpParAD41A (Helicobacter pylori, UniProt O25759 1-264, D41A); assay: as above; conditions: protein: recombinant; tags: His (Ni-NTA purified); label: 5' Cy5 in EMSA; FP label Cy3 or Cy5 not specified per DNA; blunt
# [3] = target: T3, HpParA (HpSoj);HpParB (HpSpo0J) (Helicobacter pylori;Helicobacter pylori, UniProt O25759;O25758 1-264;1-290, |); assay: EMSA; no CTP; NAC1 with Cy3-parS (N3) also in complex; FP: 20 mM Tris-HCl pH 8.0, 175 mM NaCl, 5 mM MgCl2, 10% glycerol, 1 mM ATP or CTP, 5 nM DNA, room temperature; EMSA: 20 mM Tris-HCl pH 8.0, 50 mM NaCl, 11 mM imidazole, 5 mM MgCl2, 10% glycerol, +/- 2 mM CTP, 37 C, gel at 4 C; conditions: protein: recombinant;recombinant; tags: His (Ni-NTA purified); label: 5' Cy5 in EMSA; FP label Cy3 or Cy5 not specified per DNA; blunt
# T3 sequence 1: T1 sequence with A41D
# T3 sequence 2: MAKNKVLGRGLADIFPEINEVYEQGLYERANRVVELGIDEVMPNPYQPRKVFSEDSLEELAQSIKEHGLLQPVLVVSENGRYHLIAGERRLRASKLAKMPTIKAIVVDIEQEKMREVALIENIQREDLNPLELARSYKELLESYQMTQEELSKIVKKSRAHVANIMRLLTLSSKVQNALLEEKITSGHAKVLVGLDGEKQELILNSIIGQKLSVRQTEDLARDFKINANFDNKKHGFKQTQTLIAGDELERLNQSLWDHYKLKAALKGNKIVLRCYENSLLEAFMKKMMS
# HpParB (HpSpo0J) [4] = target: T4, HpParB (HpSpo0J) (Helicobacter pylori, UniProt O25758 1-290); assay: fluorescence polarization; 1 mM CTP, 5 mM Mg2+; FP: 20 mM Tris-HCl pH 8.0, 175 mM NaCl, 5 mM MgCl2, 10% glycerol, 1 mM ATP or CTP, 5 nM DNA, room temperature; EMSA: 20 mM Tris-HCl pH 8.0, 50 mM NaCl, 11 mM imidazole, 5 mM MgCl2, 10% glycerol, +/- 2 mM CTP, 37 C, gel at 4 C; conditions: protein: recombinant, tags: His (Ni-NTA purified), chain copies: 2, blunt
# T4 sequence: T3 sequence 2
# Ct-HpParB = target: T5, Ct-HpParB (Helicobacter pylori, UniProt O25758 1-240); assay: EMSA; no CTP; FP: 20 mM Tris-HCl pH 8.0, 175 mM NaCl, 5 mM MgCl2, 10% glycerol, 1 mM ATP or CTP, 5 nM DNA, room temperature; EMSA: 20 mM Tris-HCl pH 8.0, 50 mM NaCl, 11 mM imidazole, 5 mM MgCl2, 10% glycerol, +/- 2 mM CTP, 37 C, gel at 4 C; conditions: protein: recombinant; chain copies: 2; label: none (GelRed stain); blunt
# T5 sequence: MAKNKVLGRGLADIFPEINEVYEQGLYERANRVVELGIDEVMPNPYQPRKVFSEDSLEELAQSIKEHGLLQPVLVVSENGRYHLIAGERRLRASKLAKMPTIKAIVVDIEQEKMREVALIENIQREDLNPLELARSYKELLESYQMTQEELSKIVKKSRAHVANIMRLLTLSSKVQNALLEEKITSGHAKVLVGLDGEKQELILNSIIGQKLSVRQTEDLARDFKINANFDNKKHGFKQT
# HpParB (HpSpo0J) [5] = target: T4, HpParB (HpSpo0J); assay: fluorescence polarization; no CTP, 5 mM Mg2+; FP: 20 mM Tris-HCl pH 8.0, 175 mM NaCl, 5 mM MgCl2, 10% glycerol, 1 mM ATP or CTP, 5 nM DNA, room temperature; EMSA: 20 mM Tris-HCl pH 8.0, 50 mM NaCl, 11 mM imidazole, 5 mM MgCl2, 10% glycerol, +/- 2 mM CTP, 37 C, gel at 4 C; conditions: protein: recombinant; tags: His (Ni-NTA purified); chain copies: 2; label: 5' Cy3 (FP dye assignment inferred from EMSA); blunt
binder,measurement,setting,value
B1,Kd,[1],5300 ± 1100 nM
B2,binding result,[2],binds
same,Kd,HpParA (HpSoj),117 ± 15.2 nM
same,Kd,HpParAD41A,149 ± 18.1 nM
same,binding result,[3],binds
same,Kd,"HpParB (HpSpo0J) [4]; label: 5' Cy5 in EMSA, FP label Cy3 or Cy5 not specified per DNA",145 ± 28.8 nM
B3,binding result,Ct-HpParB,no binding
B4,Kd,HpParB (HpSpo0J) [5],63.4 ± 5.6 nM
same,Kd,HpParB (HpSpo0J) [4]; label: 5' Cy3 (FP dye assignment inferred from EMSA),232 ± 42 nM
